Measured values as given in PMC3095777, “Structure and Activity of a Novel Archaeal β-CASP Protein with N-Terminal KH Domains” (Structure(London, England:1993), 2011).

T1: MTH1203 (Methanothermobacter thermautotrophicus …, UniProt O27271 1-636)
T1 sequence: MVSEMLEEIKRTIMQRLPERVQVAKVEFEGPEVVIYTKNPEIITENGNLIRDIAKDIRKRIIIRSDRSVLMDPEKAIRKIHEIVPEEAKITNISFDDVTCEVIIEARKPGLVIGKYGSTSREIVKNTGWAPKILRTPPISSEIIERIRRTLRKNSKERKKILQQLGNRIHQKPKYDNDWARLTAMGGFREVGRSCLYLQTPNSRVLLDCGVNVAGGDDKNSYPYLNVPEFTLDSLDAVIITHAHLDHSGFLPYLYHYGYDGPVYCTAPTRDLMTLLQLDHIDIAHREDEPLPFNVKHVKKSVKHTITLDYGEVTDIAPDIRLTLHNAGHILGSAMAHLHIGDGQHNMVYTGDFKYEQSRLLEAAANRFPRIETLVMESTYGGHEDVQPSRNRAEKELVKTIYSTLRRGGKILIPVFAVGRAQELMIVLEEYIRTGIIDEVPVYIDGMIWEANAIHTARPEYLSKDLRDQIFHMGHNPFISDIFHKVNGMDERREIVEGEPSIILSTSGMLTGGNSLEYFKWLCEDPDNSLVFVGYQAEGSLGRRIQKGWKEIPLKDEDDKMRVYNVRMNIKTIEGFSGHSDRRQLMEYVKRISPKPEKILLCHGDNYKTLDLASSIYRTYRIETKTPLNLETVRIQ

B1: MTH1203 (enzyme, Methanothermobacter thermautotrophicus, UniProt O27271 1-636, looked up)
chain: T1 sequence
notes: MTH1203 from Methanothermobacter thermautotrophicus strain delta H; mth1203 gene amplified from genomic DNA, cloned into pETYSBLIC-3C; predicted molecular mass 73.1 kDa; residues up to 636 named; Dimer at 0.5-0.7 M NaCl or KCl, monomer at 1 M NaCl; full cloning and purification details are in the Supplemental Experimental Procedures; also called β-CASP metallo-β-lactamase family nuclease; source: …

Assays:
[1] = target: T1, MTH1203; experiment: fluorescence anisotropy; 20 mM Tris pH 8.0, 1 M NaCl, 5 nM 5'-fluorescein RNA; temperature not stated; conditions: protein: recombinant; tags: His-tag (His-tagged construct used in titrations); label: 5' fluorescein; single strand
[2] = target: the molecule itself; experiment: SEC-MALS; size exclusion chromatography in line with multiangle laser light scattering; MTH1203 alone; 0.5 M NaCl, or 0.7 M NaCl or KCl

Row | Binder | binding result [1] | also measured
1 | GGGGGGG (ssRNA) [G7] | no binding | –
2 | CCCCCCC (ssRNA) [C7] | no binding | –
3 | AAAAAAA (ssRNA) [A7] | no binding | –
4 | UUUUUUU (ssRNA) [U7] | – | Kd [1]: 9.2 µM
5 | B1 | – | stoichiometry N [2]: 2
